Biological target: T1, Amyloid β 1-9 polypeptide corresponding to the N-terminal region of βCTF
T1 construct: Screening target and KD partner
Assay: dissociation constant against the Amyloid β 1-9 peptide; method not stated

B1: #4 polypeptide (peptide)
peptide: Ac-MHLVICDCYCTTDICYCYSCTPN-NH2
modifications: cysteine pairing not given here
notes: Synthetic peptide found by screening against Amyloid β 1-9; used dissolved in DMSO; also called peptide name #4
Kd: 2620 nM
